In patent publication US11401512:

How the values were obtained:
Assay in all cases: cell_activity
[1] = test system: 47898-FLAG ZFN (right, albumin) (synthetic)
[2] = test system: 71728 ZFN (right, albumin) F3 m5Q; FokI P478S (synthetic)
[3] = test system: 71557 ZFN (left, albumin) F1 m5Q, F3 m5Q; FokI N542D (synthetic)
[4] = test system: SBS47171-FLAG ZFN (left, albumin) (synthetic)
[5] = off-target, pair 47171/47898, AAV 600K MOI
[6] = off-target, pair 71557/71728, AAV 600K MOI

CCTATCCATTGCACTATGCTTTATTTAA (double strand) [albumin right ZFN half-site]
activity ([1]; with 47171, primary human hepatocytes, AAV 600K MOI, day 10): 25.4 % indels
activity ([2]; with 71557, primary human hepatocytes, AAV 600K MOI, day 10): 44.2 % indels

SMCHD1 off-target site
activity [1, 5]: 0.36 % indels
activity [3, 6]: 0.34 % indels
activity [2, 6]: 0.34 % indels
activity [4, 5]: 0.36 % indels

TTTGGGATAGTTATGAATTCAATCTTCA (double strand) [albumin left ZFN half-site (A/T allele)]
activity ([3]; with 71728, primary human hepatocytes, AAV 600K MOI, day 10): 44.2 % indels
activity ([4]; with 47898, primary human hepatocytes, AAV 600K MOI, day 10): 25.4 % indels
